In patent US20240018513A1, “SYNTHETIC INTRONS FOR TARGETED GENE EXPRESSION” (FRED HUTCHINSON CANCER CENTER, priority 2020, published 2024):

Legend:
[1] = system: MEL202 cells (SF3B1R625G); assay: RT-PCR of synthetic intron excision in uveal melanoma cells; format: cell-based; details: endogenous SF3B1R625G
Text: FIGS. 9A-9H: Branchpoint manipulation and combinatorial 3′ss mutations enhance SF3B1 mutation-dependent splicing. (9A) Diagrams of modifications in each intron relative to synMTERFD3i1-150. Deletions are specified as open intervals. Branchpoints were inserted in between the indicated positions. (9B) Relative viability of K562 cells expressing the indicated constructs, measured in the full screen. Relative viability estimated as fold-change in representation of each construct, measured by full-length intron sequencing from genomic DNA, at day 8 for GCV-treated relative to untreated samples. GCV concentration, 100 ug/mL. Vector is hPGK-PuroR-P2A-HSV-TK. Data represented as mean±s.d. Standard deviation was estimated as sample proportion standard deviation. (9C) Relative viability of K562 cells expressing the indicated constructs, measured in cells expressing each construct individually. […] Relative viability measured by ATP after 11 days of treatment and normalized to PBS-treated samples. […]
Total RNA was extracted using Direct-zol RNA Miniprep (Zymo Research). cDNA was synthesized using Superscript IV Reverse Transcriptase (Thermo Fisher Scientific) using the manufacturer's protocol. Amplicons were analyzed using agarose gel electrophoresis and quantified using ImageJ (Fiji). […]

[2] = system: WT or SF3B1-mutant K562 cells; assay: K562 xenografts (intravenous), GCV or PBS, bioluminescence and survival; format: in vivo, NOD-scid IL2Rgnull (NSG) mice
Text: FIGS. 4A-4I: Synthetic introns enable mutation-dependent cancer cell targeting in vivo. (4A) Schematic of xenograft experiments with K562 cells expressing Luciferase and HSV-TK interrupted by synMTERFD3i1-150. K562 cells were intravenously injected into sub-lethally irradiated (250 cGy) NOD-scid IL2rgnull (NSG) mice (2M cells/mouse). n=10 (WT) and 9 (SF3B1-mutant) mice per cohort. (4B) Quantification of tumor burden, estimated by whole-body bioluminescent signal. Each point represents a single mouse. (4C) Representative bioluminescence images from cohorts described in (4A). (4D) Survival of mice from cohort described in (4A). p computed with logrank test. Comparisons not illustrated on plot are not significant (p+/+ GCV vs. PBS=0.534; pK700E/+PBS vs.+/+PBS=0.823). The cause of death for the one GCV-treated animal engrafted with an SF3B1-mutant leukemia which died by experiment endpoint was unclear, as this animal had minimal leukemic burden by imaging or necropsy. (4E) Survival curves of NSG mice engrafted with SF3B1 WT (top) or SF3B1 K700E (bottom) MOLM-13 cells expressing Luciferase and HSV-TK interrupted by synMTERFD3i1-150 followed by treatment with either PBS or GCV. pK700E/+ PBS vs. pK700E/+GCV=0.011. n=10 mice/group. (4F) Representative bioluminescence images from cohorts described in (4E). (4G) Tumor volumes of mice engrafted with SF3B1 WT or SF3B1 K700E T47D cells expressing HSV-TK interrupted by synMTERFD3i1-150 followed by treatment with either PBS or GCV. T47D cells were engrafted subcutaneously. Data represented as mean±s.d. n=8 mice/group. (4H) Tumor volumes of mice engrafted with SF3B1 WT MEL285 cells (left) or SF3B1 R625G MEL202 cells (right) expressing HSV-TK interrupted by synthetic intron 6700 (synMTERFD3i1-150 with A>C at −7 nt; A>C at −19 nt) followed by treatment with either PBS or GCV. All cells were engrafted subcutaneously. Data represented as mean±s.d. n=10 mice/group. (4I) Representative gross images of the tumors from (4H) at day 27 post-implantation.
Having identified the key features governing mutation responsiveness, the next step was to test whether synthetic introns permitted mutation-dependent cancer cell killing in vivo. A focus was made on synMTERFD3i1-150 for these experiments, as it served as the parent synthetic intron from which most of the full library was derived. Luciferase-GFP constructs were introduced into WT or SF3B1-mutant K562 cells expressing HSV-TK interrupted by synMTERFD3i1-150, tail vein injections of these cells were performed into NOD-scid IL2Rgnull (NSG) mice. The mice were treated with PBS or GCV and monitored for leukemia burdens with live imaging (FIG. 4A). […]

B1: intron_26: 150 nt MTERFD3 intron 1-derived synthetic intron, deletion 25to125; SEQ ID NO 58/66 (nucleic acid)
DNA 1: GTGAGTCGCCCCCTTCCTCTGCTCCGAGAGGGAAATGGGAATTAGGGTGGTGGCAGAGCCCAAAGAGGCCTTGTAGGCCATGGTAAGGCATTTCTATGTTTTATTTTACTTTGTCTTTATCCTAAAATGCCATTGGCAAGTTTATTGCAG
DNA 2: B1 DNA 1
excision / splicing of the synthetic intron (RT-PCR) [1]: excised in the context of endogenous SF3B1R625G, although less efficiently than for SF3B1K700E | survival, p (logrank test) ([2]; +/+ (WT) GCV vs. PBS): 0.534 | leukemic burden (whole-body bioluminescent signal) ([2]; GCV 80 mg/kg IP three times per week vs PBS): immediate and sustained suppression of SF3B1-mutant leukemic burden, with no effects on WT leukemias | survival ([2]; GCV- vs PBS-treated SF3B1-mutant leukemias): significantly increased survival | survival, p (logrank test) ([2]; GCV- vs. PBS-treated SF3B1-mutant leukemias): 1.7e-4
